# Measured values reported in paper PMC8163371.
# pKd: −log10 of the molar value. Like-named read-outs stand apart in the source and are kept apart here.
# Assays:
# [1] = molecular target: H3K9me2S28ph nucleosomes (individually reconstituted for quantitative measurements); test: MST
# [2] = molecular target: H3K9me2S28ph nucleosomes (individually reconstituted for quantitative measurements); test: MST; remark: listed apart in the source
# [3] = molecular target: H3K9me2 nucleosomes (individually reconstituted for quantitative measurements); test: MST
# [4] = molecular target: H3K9me2S28ph nucleosomes (individually reconstituted for quantitative measurements); test: MST; remark: listed apart in the source
# HP1β (HP1) [5] = molecular target: HP1β (HP1) (UniProt P83916); test: eCFP-HP1 retention on immobilised nucleosome library; conditions: reference: H3K9me2 nucleosomes; sites S28
# HP1β (HP1) [6] = molecular target: HP1β (HP1) (UniProt P83916); test: eCFP-HP1 retention on H2A + H3 nucleosome library; conditions: reference: H3K9me2 nucleosomes; sites S28
Substance,pKd [1],pKd [2],fold stronger binding than the H3K9me2 nucleosome on 187 bp DNA [2] [fold],pKd [3],pKd [4],other: fold enrichment over unmodified H3 nucleosomes (HP1β (HP1) [5]),fold change (HP1β (HP1) [6]) [fold]
HP1 without eCFP tag (human HP1β) (from UniProt P83916 1-185) (natural protein),5.77,6.22,2,5.62,5.74,–,–
histone H3 H3K9me2S28ph nucleosomes,–,–,–,–,–,stronger; reference 4.8,2.3
